Measured values: patent US20040248211A1, “ICAM-related protein” (priority 1992, published 2004)

Key:
[1] = tested on: PBL; assay: Detergent resistance (cytoskeleton association) assay, PBL; assay type: cell-based, human
Protocol: Experiments were conducted using freshly prepared human PBL or the human T lymphoblastoid cell line CEM-CCRF (ATCC CCL119). Briefly, freshly drawn human blood from healthy volunteer donors was diluted 1:1 with PBS and layered onto Sigma HistoPaque density separation medium. The gradients were centrifuged for 30 minutes at 1500 rpm (600×g) and the mononuclear cell fraction at the interphase was collected and washed three times with PBS. The cell pellet was resuspended in complete RPMI-1640 medium (Gibco, supplemented with L-glutamine, penicillin/streptomycin, sodium pyruvate, 2-mercaptoethanol, and 10% FBS) and plated onto tissue culture-treated petri dishes for adherent cell depletion. Plates were incubated 1-2 hours at 37° C., 5% CO2 after which nonadherent PBL were harvested and washed twice with ice-cold PBS. Conjugation of monoclonal antibodies to fluorescein using fluorescein isothiocyanate (FITC) was performed according to published procedures [see, e.g., Goding, J. Immunol. Meth., 13: 215 (1976)] and, in brief, involves incubation of purified antibody with an excess of FITC (Sigma) in 0.1M bicarbonate buffer pH 8.1 for 90 minutes at 37° C. followed by exhaustive dialysis against PBS to remove unreacted FITC. […]

[2] = tested on: human PBL; assay: SEA-induced aggregation of PBL; assay type: cell-based; details: versus plate-bound B-H9
[3] = tested on: Fraction C cells (quiescent CD3 positive PBL); assay: IL-2 production by T lymphocytes after prepulse on antibody; assay type: cell-based, human; details: 18 hours prepulse on immobilized antibody, then anti-CD3 OKT3
Protocol: Human PBL were obtained by Ficoll-Hypaque centrifugation of whole peripheral blood. Adherent cells were depleted by incubation on plastic and nonadherent cells were subjected to discontinuous centrifugation on Percoll gradients to further separate subsets of lymphocytes into medium buoyant density (fraction B) and high buoyant density (fraction C) cell populations. Prior to cell addition, wells were coated with monoclonal antibodies by addition of 0.1 ml each antibody at 5 ug/ml in PBS per microtiter well. Following antibody addition, all wells were incubated overnight at 4 degrees and each well was washed free of unbound antibody by PBS rinsing prior to addition of cells. Each cell fraction was then incubated for 18 hours on either ICR-1.1, ICR-4.2 or control antibodies to human major Histocompatibility Complex Class I (MHC Class I). For these experiments 2×10^5 cells per well were added in a volume of 0.2 ml RPMI-1640 containing 10% FCS to individual wells of a 96 well flat bottom microtiter plate (Costar, Cambridge, Mass.). After 18-20 hours incubation at 37° C., the cells were collected from the microtiter wells and washed twice in RPMI-1640 media containing 10% FCS and adjusted to 1×10^6 per ml in RPMI-1640 containing 10% FCS. […]

[4] = tested on: Resting PBL; assay: CD69 and CD25 upregulation after prepulse; assay type: cell-based, human; details: 24 hours
Protocol: Resting PBL isolated as described in Section I above were prepulsed on ICR-1.1 or negative control antibodies, washed and incubated on immobilizedanti-CD3 for 24 hours. The cells were then collected, labeled with monoclonal antibodies to the lymphocyte activation antigens CD69, CD25 and CD80 and examined by flow cytometry.

B1: ICR-1.1: anti-ICAM-R monoclonal antibody, IgG2a, domain 1, ATCC HB 11053 (antibody, V domains shown)
VH: QVQLQQSGAELAKPGASVKMSCKASGYTFTVYWMHWVKQRPGQGLEWIGYINPNTDYTEYNQRFQDKATLTADKSSSTAYMQLSSLTSEDSAVYYCARWGGNSYGLDYWGQGTSVTVSS
VL: QIVLTQSPALMSASPGEKVTMTCSASSSVSYIYWYQQKPRSSPKPWIYLTSNLASGVPARFSGSGSGASYSLTISIMEAEDAATYYCQQWKSIPLTFGAGTKLELK
[1]
  greater increase in detergent resistance, crosslinked antibody: approximately 2 fold
[2]
  SEA-induced cell aggregation, plate-bound antibody: almost complete
[3]
  IL-2 produced relative to prepulse on negative control antibodies: less than 50%
[4]
  upregulation of CD69 and CD25 in response to immobilized anti-CD3 after prepulse: do not exhibit decreased ability to upregulate the activation antigens CD69 and CD25
